Broadly, the Kd is the concentration at which binding is half-saturated. A higher Kd goes with weaker binding.

No end group written: not given here.

The target of this assay is Arp2/3 complex (human, UniProt P61158 1-418; P61160 1-394; O15143 1-372). The assay can be described thus: SPR; Biacore 8K, 25°C, PBS with 0.05% Tween-20; Arp2/3 immobilised on CM5 chip; analytes injected at 30 μL/min, 60 s association, 60 s dissociation; Arpin^FM 3.125-200 μM, ArpinCT, GST-aCT and D-aCT 0.625-40 μM, AI-designed variants 0.156-10 μM. As to conditions: both partners purified. (In general: Surface plasmon resonance follows binding to a sensor surface in real time, without labels.)

B1: D-aCT (dual-tailed peptide of two Arpin CTs linked at their N-termini by BM(PEG)3) (peptide)
chain: CSSGGSSGGSSGGSSGGGASWTDNIMAQKSSKGAAAEIREQGDGAEDEEWDD
modifications: not fully specified (residue 1); also: dimer: N-terminal Cys linked to N-terminal Cys of second chain by BM(PEG)3
B1 returned a Kd of 5.5 µM.

These data come from doi:10.1101/2025.06.24.661301, “Homodimerized Arpins: Binding to Arp2/3 Complexes with Positive Synergy to Inhibit Lamellipodia-Dependent Tumor Metastasis” (bioRxiv, 2025).
